Assay results taken from publication PMC7705443 (Cell Research, 2020).

What was measured:
[1] = target: SARS-CoV-2 RBD (residues 319-541), C-terminal his-tag (SARS-CoV-2, Wuhan-Hu-1 (MN908947.3), UniProt P0DTC2); assay: SPR; settings: both partners purified
[2] = target: SARS-CoV RBD (residues 306-527), C-terminal his-tag (SARS-CoV (GenBank NC_004718.3, Tor2), UniProt P59594); assay: SPR; settings: both partners purified

B1: P17 antibody (full-length IgG1) (antibody, V domains shown)
VH: QQLVESGGGVVQPGRSLRLSCAASGFTFSSYAMHWVRQAPGKGLEWVAVISYDGSNKYYADSVKGRFTISRDNSKNTLYLQMNSLRAEDTAVYYCARHATLMNNKDIWGQGTLVTVSS
VL: not shown
notes: also called NAb P17
Kd [1]: 96 pM | binding result [2]: no binding
